Measured values from article PMC5542437, “Assembly and stoichiometry of the core structure of the bacterial flagellar type III export gate complex” (PLoS Biology, 2017).

T1: FlhB (Salmonella enterica, UniProt P40727 1-383)
T1 construct: FlhB, Salmonella enterica, transmembrane export gate protein; its C-terminal cytoplasmic domain undergoes autocleavage between Asp-269 and Pro270 as printed; source: Salmonella SJW1368, pTrc99A-based plasmid, in DDM- or LMNG-solubilised membranes; co-purified
T1 sequence: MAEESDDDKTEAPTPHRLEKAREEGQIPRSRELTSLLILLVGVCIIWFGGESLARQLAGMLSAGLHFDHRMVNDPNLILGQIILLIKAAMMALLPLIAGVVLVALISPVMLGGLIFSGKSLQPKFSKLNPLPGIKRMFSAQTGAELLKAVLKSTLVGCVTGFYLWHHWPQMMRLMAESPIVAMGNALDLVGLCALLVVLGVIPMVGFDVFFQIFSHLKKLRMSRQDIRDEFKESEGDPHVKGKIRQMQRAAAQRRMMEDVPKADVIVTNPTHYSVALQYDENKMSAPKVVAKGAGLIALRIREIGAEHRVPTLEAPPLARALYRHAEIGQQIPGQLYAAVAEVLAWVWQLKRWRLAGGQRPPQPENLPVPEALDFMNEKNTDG

T2: FliR-FLAG (Salmonella enterica, UniProt P54702 1-264)
T2 construct: FliR, Salmonella enterica, transmembrane export gate protein; also called FLAG-FliR (as printed in the methods); source: Salmonella SJW1368, pTrc99A-based plasmid, in DDM- or LMNG-solubilised membranes; co-purified (Ni-NTA, anti-FLAG gel, SEC)
T2 sequence: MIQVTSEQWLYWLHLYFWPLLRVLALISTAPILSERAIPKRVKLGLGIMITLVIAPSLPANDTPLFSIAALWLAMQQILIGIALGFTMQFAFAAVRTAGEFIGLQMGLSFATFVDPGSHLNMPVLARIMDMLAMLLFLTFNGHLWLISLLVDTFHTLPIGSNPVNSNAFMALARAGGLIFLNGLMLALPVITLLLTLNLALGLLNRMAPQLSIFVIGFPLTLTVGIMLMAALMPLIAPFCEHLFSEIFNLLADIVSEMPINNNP

T3: FlhA (Salmonella enterica, UniProt P40729 1-692)
T3 construct: FlhA, Salmonella enterica, transmembrane export gate protein; source: Salmonella SJW1368, pTrc99A-based plasmid, in DDM- or LMNG-solubilised membranes; co-purified
T3 sequence: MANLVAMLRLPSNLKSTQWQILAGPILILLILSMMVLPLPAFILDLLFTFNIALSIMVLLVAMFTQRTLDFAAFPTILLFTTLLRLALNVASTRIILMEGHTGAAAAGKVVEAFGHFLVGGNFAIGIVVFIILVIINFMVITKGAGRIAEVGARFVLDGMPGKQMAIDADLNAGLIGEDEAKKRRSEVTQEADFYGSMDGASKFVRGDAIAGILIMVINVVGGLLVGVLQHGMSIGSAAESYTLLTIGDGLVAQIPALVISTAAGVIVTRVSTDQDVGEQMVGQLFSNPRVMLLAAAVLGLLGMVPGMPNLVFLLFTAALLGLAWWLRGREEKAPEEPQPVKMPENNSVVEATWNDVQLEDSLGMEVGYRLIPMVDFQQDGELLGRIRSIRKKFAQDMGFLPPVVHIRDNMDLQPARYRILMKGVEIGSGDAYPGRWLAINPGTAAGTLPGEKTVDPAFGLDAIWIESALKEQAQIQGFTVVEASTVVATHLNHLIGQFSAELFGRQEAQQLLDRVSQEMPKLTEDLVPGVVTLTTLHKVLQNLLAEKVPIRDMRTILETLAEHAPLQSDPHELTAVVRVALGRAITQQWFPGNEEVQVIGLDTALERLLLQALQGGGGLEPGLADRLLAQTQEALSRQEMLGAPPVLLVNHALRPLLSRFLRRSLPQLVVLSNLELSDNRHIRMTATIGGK

B1: HA-FliQ (natural protein)
chain: MTPESVMMMGTEAMKVALALAAPLLLVALITGLIISILQAATQINEMTLSFIPKIVAVFIAIIVAGPWMLNLLLDYVRTLFSNLPYIIG
notes: FliQ, Salmonella enterica, transmembrane export gate protein; source: Salmonella SJW1368, pTrc99A-based plasmid, in DDM- or LMNG-solubilised membranes; co-purified
B2: His-St-FliP (Salmonella FliP with a hexahistidine tag inserted between Gln-22 and Leu-23) (natural protein)
chain: QLPGLISQPLAGGGQSWSLSVQTLVFITSLTFLPAILLMMTSFTRIIIVFGLLRNALGTPSAPPNQVLLGLALFLTFFIMSPVIDKIYVDAYQPFSEQKISMQEALDKGAQPLRAFMLRQTREADLALFARLANSGPLQGPEAVPMRILLPAYVTSELKTAFQIGFTIFIPFLIIDLVIASVLMALGMMMVPPATIALPFKLMLFVLVDGWQLLMGSLAQSFYS
notes: FliP, Salmonella enterica, 25-kDa transmembrane protein; mature form studied; the signal peptide (Met-1 to Gln-22) is cleaved during membrane insertion; tag LHHHHHH inserted between Gln-22 and Leu-23; Hexameric ring in SEC peak 2; also called His-FliP; FliP6 ring; source: Salmonella SJW1368, membranes solubilised with 1% DDM or 1% LMNG; purified (Ni-NTA, SEC); not shown: His6 (LHHHHHH), internal …

Key:
[1] = biological target: B2; assay: pull-down; Ni-NTA copurification with His-FliP from SJW1368 co-expressing FlhA, FlhB, FliO, His-FliP, HA-FliQ and FliR-FLAG; membranes solubilised with 1% LMNG; immunoblot (lane L of Fig 6B); conditions: partners not purified
FlhB = biological target: T1, FlhB; assay: pull-down; copurification from Salmonella SJW1368 co-expressing His-FliP with other export gate proteins; membranes solubilised with 1% DDM; Ni affinity, then anti-FLAG M2 affinity (eluted with FLAG peptide), then SEC on Superdex 200 10/300; SDS-PAGE with CBB; conditions: partners not purified
FliR-FLAG = biological target: T2, FliR-FLAG; assay: as above; conditions: partners not purified
[2] = biological target: the molecule itself; assay: negative-stain electron microscopy with 2D class averaging; purified SEC peak fractions, 1.0% uranyl acetate, 100 kV; autocorrelation analysis for the rotational symmetry of the FliP ring
FlhA = biological target: T3, FlhA; assay: pull-down; Ni-NTA copurification with His-FliP from SJW1368 co-expressing FlhA, FlhB, FliO, His-FliP, HA-FliQ and FliR-FLAG; membranes solubilised with 1% LMNG; immunoblot (lane L of Fig 6B); conditions: partners not purified
[3] = biological target: the molecule itself; assay: SEC; Ni-purified His-FliP or FliO/His-FliP complexes (wild type and mutants) on Superdex 200 10/300; 20 mM Tris-HCl pH 8.0, 300 mM NaCl, 2 mM EDTA, 5% glycerol, 0.1% DDM

Binder | binding result [1] | binding result (FlhB) | binding result (FliR-FLAG) | stoichiometry N [2] | binding result (FlhA) | stoichiometry N [3]
B1 | binds |  |  |  |  | 
B2 |  | binds | binds | 6 | binds | 2
